What all share (assay): purified protein
Substrate in data set [1]: CC(=O)Oc1ccc([N+](=O)[O-])cc1
Type of data set: biochemical, Thermomyces lanuginosus. The following applies: free enzyme, PBS 100 mM pH 6.5, 37 °C, substrate of the kinetics taken from the activity assay.

Substrate in data set [2]: CCOC(=O)[C@H](CCCNC(=N)N)NC(=O)c1ccccc1
To be noted: free enzyme, 37 °C, pH not told, substrate of the kinetics taken from the activity assay.

Substrate in data set [3]: CC(=O)Oc1ccc([N+](=O)[O-])cc1
The format is biochemical, Moesziomyces antarcticus. The following applies: free enzyme, PBS 100 mM pH 6.5, 37 °C, substrate of the kinetics taken from the activity assay.

B1: Lipase from Thermomyces lanuginosus (TLL) (Thermomyces lanuginosus) (protein)
chain: EVSQDLFNQFNLFAQYSAAAYCGKNNDAPAGTNITCTGNACPEVEKADATFLYSFEDSGVGDVTGFLALDNTNKLIVLSFRGSRSIENWIGNLNFDLKEINDICSGCRGHDGFTSSWRSVADTLRQKVEDAVREHPDYRVVFTGHSLGGALATVAGADLRGNGYDIDVFSYGAPRVGNRAFAEFLTVQTGGTLYRITHTNDIVPRLPPREFGYSHSSPEYWIKSGTLVPVTRNDIVKIEGIDATGGNNQPNIPDIPAHLWYFGLIGTCL
Turning to B1, in the data set “purified protein [1]”, the Km worked out at 16.58 ± 0.793 mM, the kcat was determined as 29.3 ± 1.26 s⁻¹ and the kcat/Km turned out to be 1770 ± 8 M⁻¹ s⁻¹.

B2: Papain (Carica papaya) (protein)
chain: IPEYVDWRQKGAVTPVKNQGSCGSCWAFSAVVTIEGIIKIRTGNLNEYSEQELLDCDRRSYGCNGGYPWSALQLVAQYGIHYRNTYPYEGVQRYCRSREKGPYAAKTDGVRQVQPYNEGALLYSIANQPVSVVLEAAGKDFQLYRGGIFVGPCGNKVDHAVAAVGYGPNYILIKNSWGTGWGENGYIRIKRGTGNSYGVCGLYTSSFYPVKN
B2: in the data set “purified protein [2]”, the Km was found to be 1.01 ± 0.05 mM, the kcat is 2.67 s⁻¹ and the kcat/Km turned out to be 2670 M⁻¹ s⁻¹.

B3: Lipase B from Candida antarctica (CALB) (Moesziomyces antarcticus) (protein)
chain: LPSGSDPAFSQPKSVLDAGLTCQGASPSSVSKPILLVPGTGTTGPQSFDSNWIPLSTQLGYTPCWISPPPFMLNDTQVNTEYMVNAITALYAGSGNNKLPVLTWSQGGLVAQWGLTFFPSIRSKVDRLMAFAPDYKGTVLAGPLDALAVSAPSVWQQTTGSALTTALRNAGGLTQIVPTTNLYSATDEIVQPQVSNSPLDSSYLFNGKNVQAQAVCGPLFVIDHAGSLTSQFSYVVGRSALRSTTGQARSADYGITDCNPLPANDLTPEQKVAAAALLAPAAAAIVAGPKQNCEPDLMPYARPFAVGKRTCSGIVTP
For B3, in the data set “purified protein [3]”, the Km is reported as 6.36 ± 0.321 mM, the kcat was found to be 56.8 ± 2.73 s⁻¹ and the kcat/Km is 8920 ± 23 M⁻¹ s⁻¹.

A word on the Km: it is the concentration of substrate that gives half-maximal velocity. What is called kcat is the number of substrate molecules converted per active site and unit of time at saturation. As a reminder, the kcat/Km is the second-order rate constant that governs catalysis at low substrate concentration.

Values taken from paper PMC9080259, “Dual-cycle immobilization to reuse both enzyme and support by reblossoming enzyme–inorganic hybrid nanoflowers” (RSC Advances, 2018).
